Key:
[1] = biological target: His-tagged NcKar9N-γ^− (Tyr363Ala/Arg364Ala) (Naumovozyma castellii); test: SEC-MALS; 20 mM Tris-HCl pH 7.5, 50 mM NaCl, 1 mM dithiothreitol; S-200 10/300 column; 30 μl of 200 μM protein injected
[2] = biological target: His-tagged NcKar9N-β^− (Arg233Ala/Ile237Ala) (Naumovozyma castellii); test: as above
[3] = biological target: His-tagged NcKar9N-β^− (Arg233Ala/Ile237Ala) (Naumovozyma castellii); test: SEC-MALS; 20 mM Tris-HCl pH 7.5, 150 mM NaCl, 1 mM dithiothreitol; S-200 10/300 column; 30 μl of 200 μM protein injected
[4] = biological target: His-tagged Naumovozyma castellii Kar9 N-terminal domain (NcKar9N, residues 1-410), wild type (Naumovozyma castellii); test: as above

Question: How did the stoichiometry N [1] turn out when “His-tagged NcKar9N-γ^− (Tyr363Ala/Arg364Ala) (domain or fragment)” was run?
Answer: < 4

Question: Which results are given for “His-tagged NcKar9N-β^− (Arg233Ala/Ile237Ala) (domain or fragment)”?
Answer: stoichiometry N [2]: 2; stoichiometry N [3]: 2

Question: Which stoichiometry N [4] does the source give for “His-tagged Naumovozyma castellii Kar9 N-terminal domain (NcKar9N, residues 1-410), wild type (domain or fragment)” here?
Answer: 2
